Reference: PMC11658451, “The human Dicer helicase domain is capable of ATP hydrolysis and single-stranded nucleic acid binding” (BMC Biology, 2024)
Values belong to the molecule of their own block, whether it stands above or below them.

Key:
[1] = target: T1, WT hDicer (Homo sapiens, UniProt Q9UPY3, K70A); assay: EMSA with radiolabelled ATP; conditions: labelled compound ([γ-32P]-ATP, 2 nM); 150 mM NaCl, 50 mM Tris-HCl pH 7.5, 2.5 mM MgCl2, 4 °C, no RNA; Walker A mutant; weak binding, Kd could not be determined
T1 construct: gene DICER1; full-length, 1922 aa, ~220 kDa; expressed in human 293T NoDice cells and purified; K70A variant from Addgene plasmid 41589

[2] = target: T2, HEL (Homo sapiens, UniProt Q9UPY3); assay: ATP hydrolysis, PAGE of released […]; assay type: biochemical; conditions: labelled compound ([γ-32P]-ATP, 2 nM), HEL 2 nM (low turnover); 150 mM NaCl, 50 mM Tris-HCl pH 7.5, 2.5 mM MgCl2, 37 °C
T2 construct: gene DICER1; isolated helicase domain, residues 1-624, N-terminal His6 tag (pMCSG7), expressed in E. coli BL21Star, Ni-Sepharose purified
T2 sequence (Q9UPY3 1-624): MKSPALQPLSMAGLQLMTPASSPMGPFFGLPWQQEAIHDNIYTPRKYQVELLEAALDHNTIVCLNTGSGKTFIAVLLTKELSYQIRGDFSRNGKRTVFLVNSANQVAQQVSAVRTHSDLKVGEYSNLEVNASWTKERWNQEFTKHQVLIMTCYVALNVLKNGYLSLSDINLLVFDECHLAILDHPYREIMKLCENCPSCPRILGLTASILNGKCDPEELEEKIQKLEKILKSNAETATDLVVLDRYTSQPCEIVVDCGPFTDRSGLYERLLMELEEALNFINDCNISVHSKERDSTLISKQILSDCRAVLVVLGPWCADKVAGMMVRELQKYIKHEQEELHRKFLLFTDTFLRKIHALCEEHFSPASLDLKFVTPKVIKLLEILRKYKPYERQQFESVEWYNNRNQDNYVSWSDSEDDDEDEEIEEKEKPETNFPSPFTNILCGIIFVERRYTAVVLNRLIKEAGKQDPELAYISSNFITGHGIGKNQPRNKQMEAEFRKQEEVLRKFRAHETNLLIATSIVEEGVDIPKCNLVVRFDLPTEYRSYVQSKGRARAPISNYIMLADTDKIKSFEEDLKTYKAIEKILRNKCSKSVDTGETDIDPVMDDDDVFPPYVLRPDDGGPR

[3] = target: T3, WT hDicer (Homo sapiens, UniProt Q9UPY3); assay: EMSA with radiolabelled ATP; assay type: binding
T3 construct: gene DICER1; full-length, 1922 aa, ~220 kDa; expressed in human 293T NoDice cells and purified; K70A variant from Addgene plasmid 41589

[4] = target: T4, HEL (hDicer helicase domain) (Homo sapiens, UniProt Q9UPY3 1-624); assay: EMSA; 50 mM Tris-HCl pH 7.5, 150 mM NaCl; EMSA 15 min at room temperature (also 4 and 37 C), 5% native PAA gel in 1x TBE at 4 C; BLI 23 C; conditions: protein: recombinant; tags: N-terminal His6 (pMCSG7); label: 5' 32P (EMSA); none (BLI)
T4 sequence: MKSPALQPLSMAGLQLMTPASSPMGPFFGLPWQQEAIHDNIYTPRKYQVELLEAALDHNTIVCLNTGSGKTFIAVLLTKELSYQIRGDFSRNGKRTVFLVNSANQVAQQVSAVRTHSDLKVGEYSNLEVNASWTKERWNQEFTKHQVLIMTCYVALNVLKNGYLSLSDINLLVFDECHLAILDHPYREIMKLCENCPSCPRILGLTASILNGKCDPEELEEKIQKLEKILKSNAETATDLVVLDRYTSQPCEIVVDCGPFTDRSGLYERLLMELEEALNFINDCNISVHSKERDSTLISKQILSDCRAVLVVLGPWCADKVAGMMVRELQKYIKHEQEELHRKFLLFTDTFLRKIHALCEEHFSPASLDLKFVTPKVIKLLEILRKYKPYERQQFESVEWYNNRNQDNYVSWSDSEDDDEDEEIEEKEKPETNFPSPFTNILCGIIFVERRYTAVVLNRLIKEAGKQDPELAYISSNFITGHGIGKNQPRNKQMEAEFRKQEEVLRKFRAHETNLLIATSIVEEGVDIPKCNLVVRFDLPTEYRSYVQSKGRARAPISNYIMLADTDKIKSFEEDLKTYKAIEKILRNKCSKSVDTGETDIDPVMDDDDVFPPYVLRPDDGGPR

[5] = target: T4, HEL (hDicer helicase domain); assay: BLI; 23 C, HEL immobilized; 50 mM Tris-HCl pH 7.5, 150 mM NaCl; EMSA 15 min at room temperature (also 4 and 37 C), 5% native PAA gel in 1x TBE at 4 C; BLI 23 C; conditions: protein: recombinant; tags: N-terminal His6 (pMCSG7); label: 5' 32P (EMSA); none (BLI)
[6] = target: T4, HEL (hDicer helicase domain); assay: EMSA; up to 95 uM HEL; 50 mM Tris-HCl pH 7.5, 150 mM NaCl; EMSA 15 min at room temperature (also 4 and 37 C), 5% native PAA gel in 1x TBE at 4 C; BLI 23 C; conditions: protein: recombinant, tags: N-terminal His6 (pMCSG7)
[7] = target: T4, HEL (hDicer helicase domain); assay: EMSA; room temperature; 50 mM Tris-HCl pH 7.5, 150 mM NaCl; EMSA 15 min at room temperature (also 4 and 37 C), 5% native PAA gel in 1x TBE at 4 C; BLI 23 C; conditions: protein: recombinant; tags: N-terminal His6 (pMCSG7); label: 5' 32P; unstructured
[8] = target: T4, HEL (hDicer helicase domain); assay: SAXS; 1:1 complex; 50 mM Tris-HCl pH 7.5, 150 mM NaCl; EMSA 15 min at room temperature (also 4 and 37 C), 5% native PAA gel in 1x TBE at 4 C; BLI 23 C; conditions: protein: recombinant, tags: N-terminal His6 (pMCSG7), label: 5' 32P (EMSA), hairpin
[9] = target: T4, HEL (hDicer helicase domain); assay: EMSA; 37 C; 50 mM Tris-HCl pH 7.5, 150 mM NaCl; EMSA 15 min at room temperature (also 4 and 37 C), 5% native PAA gel in 1x TBE at 4 C; BLI 23 C; conditions: protein: recombinant; tags: N-terminal His6 (pMCSG7); label: 5' 32P; unstructured
[10] = target: T4, HEL (hDicer helicase domain); assay: EMSA; distinct complex; 50 mM Tris-HCl pH 7.5, 150 mM NaCl; EMSA 15 min at room temperature (also 4 and 37 C), 5% native PAA gel in 1x TBE at 4 C; BLI 23 C; conditions: protein: recombinant; tags: N-terminal His6 (pMCSG7); label: 5' 32P (EMSA); none (BLI)
[11] = target: T4, HEL (hDicer helicase domain); assay: CD thermal melting; HEL transitions shift to 52 and 74 C; RNA transition 75 to 60 C; 50 mM Tris-HCl pH 7.5, 150 mM NaCl; EMSA 15 min at room temperature (also 4 and 37 C), 5% native PAA gel in 1x TBE at 4 C; BLI 23 C; conditions: protein: recombinant; tags: N-terminal His6 (pMCSG7); label: 5' 32P (EMSA); none (BLI); partly self-paired (predicted)
[12] = label: 5' 32P on one strand, blunt
[13] = label: 5' 32P on one strand, 3' overhang 2 nt on each end

T1 sequence (Q9UPY3 whole entry K70A): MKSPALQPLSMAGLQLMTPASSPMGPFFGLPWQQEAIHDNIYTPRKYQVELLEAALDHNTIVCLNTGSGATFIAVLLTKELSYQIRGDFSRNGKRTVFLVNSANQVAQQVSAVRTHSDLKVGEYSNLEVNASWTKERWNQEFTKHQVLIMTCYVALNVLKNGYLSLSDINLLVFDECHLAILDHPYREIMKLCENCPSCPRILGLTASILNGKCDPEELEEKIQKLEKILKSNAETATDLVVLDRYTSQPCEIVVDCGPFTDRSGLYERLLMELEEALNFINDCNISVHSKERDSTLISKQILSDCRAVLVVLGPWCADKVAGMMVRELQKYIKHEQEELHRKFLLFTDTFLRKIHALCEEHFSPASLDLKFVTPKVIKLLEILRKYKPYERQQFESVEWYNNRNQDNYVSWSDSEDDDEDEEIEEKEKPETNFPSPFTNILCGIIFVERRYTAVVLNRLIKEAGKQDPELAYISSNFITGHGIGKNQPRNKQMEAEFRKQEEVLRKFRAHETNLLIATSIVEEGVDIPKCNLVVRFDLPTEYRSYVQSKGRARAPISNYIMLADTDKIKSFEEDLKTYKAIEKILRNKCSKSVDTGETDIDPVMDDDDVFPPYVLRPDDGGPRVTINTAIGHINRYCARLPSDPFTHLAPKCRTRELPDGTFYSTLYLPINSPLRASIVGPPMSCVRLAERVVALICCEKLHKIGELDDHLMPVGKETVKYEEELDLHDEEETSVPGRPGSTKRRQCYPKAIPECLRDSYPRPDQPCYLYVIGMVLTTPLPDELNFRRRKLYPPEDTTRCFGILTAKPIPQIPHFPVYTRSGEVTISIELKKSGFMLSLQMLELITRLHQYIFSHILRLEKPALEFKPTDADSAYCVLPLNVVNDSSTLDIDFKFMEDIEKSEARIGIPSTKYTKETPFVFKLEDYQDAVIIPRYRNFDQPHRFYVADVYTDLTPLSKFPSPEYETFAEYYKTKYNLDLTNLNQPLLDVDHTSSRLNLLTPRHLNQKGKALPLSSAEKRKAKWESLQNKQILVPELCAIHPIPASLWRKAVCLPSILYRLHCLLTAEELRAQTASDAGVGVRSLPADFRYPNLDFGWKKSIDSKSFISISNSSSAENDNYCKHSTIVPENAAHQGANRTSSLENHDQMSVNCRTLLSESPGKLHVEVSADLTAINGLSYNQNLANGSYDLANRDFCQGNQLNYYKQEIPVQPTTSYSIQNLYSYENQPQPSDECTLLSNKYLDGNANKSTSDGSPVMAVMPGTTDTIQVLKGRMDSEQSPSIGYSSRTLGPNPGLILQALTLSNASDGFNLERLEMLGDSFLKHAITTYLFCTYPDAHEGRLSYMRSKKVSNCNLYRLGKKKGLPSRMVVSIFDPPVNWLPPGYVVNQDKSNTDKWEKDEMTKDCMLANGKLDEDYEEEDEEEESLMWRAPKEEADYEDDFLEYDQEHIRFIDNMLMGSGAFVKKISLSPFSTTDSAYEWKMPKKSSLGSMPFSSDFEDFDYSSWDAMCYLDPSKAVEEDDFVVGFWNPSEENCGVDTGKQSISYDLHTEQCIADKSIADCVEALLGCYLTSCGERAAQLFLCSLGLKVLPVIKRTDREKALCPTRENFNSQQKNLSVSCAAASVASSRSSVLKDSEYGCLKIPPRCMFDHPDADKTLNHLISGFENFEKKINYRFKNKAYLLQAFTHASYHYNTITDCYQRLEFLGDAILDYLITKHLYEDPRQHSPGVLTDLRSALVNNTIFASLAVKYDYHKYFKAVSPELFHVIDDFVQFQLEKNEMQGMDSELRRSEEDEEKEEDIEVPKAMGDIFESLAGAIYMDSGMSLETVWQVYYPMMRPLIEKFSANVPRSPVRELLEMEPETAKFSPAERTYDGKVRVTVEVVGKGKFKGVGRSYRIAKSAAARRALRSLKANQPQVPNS

Kd [3]: ~0.085 µM
Molecule: Nc1ncnc2c1ncn2[C@@H]1O[C@H](COP(=O)(O)OP(=O)(O)OP(=O)(O)O)[C@@H](O)[C@H]1O [ATP]
EMSA with radiolabelled ATP [1]: only weak ATP binding could be observed for hDicer_K70A | ATP hydrolysis, PAGE of released 32Pi [2]: ATP was hydrolyzed in reactions carried out with HEL (Fig. 2a) and WT hDicer

Molecule: GGGAGAATCATAAGTAGCCTCCCCCCATGTTAACAGTTAGCC (ssDNA) [D42]
Kd [4]: ~8.5 µM | Kd [5]: ~22 µM

Molecule: GAAUCUUAACGC (ssRNA) [R12]
binding result ([6]; label: 5' 32P): no binding

B1: dsRNA_blunt (dsRNA)
RNA 1: GUGCAUUGUAGUUGCAUUGCAUGUUCUGGUCA
RNA 2: UGACCAGAACAUGCAAUGCAACUACAAUGCAC
binding result [6, 12]: no binding

B2: dsRNA_over (dsRNA)
RNA 1: GUGCAUUGUAGUUGCAUUGCAUGUUCUGGUCA
RNA 2: ACCAGAACAUGCAAUGCAACUACAAUGCACAU
binding result [6, 13]: no binding

Molecule: ACACACACACACACACACACACACACACACACACACACACAC (ssRNA) [(AC)21]
binding result [7]: binds

B3: pre-mir-21 (structured_RNA)
RNA: AGCUUAUCAGACUGAUGUUGACUGUUGAAUCUCAUGGCAACACCAGUCGAUGGGCUGU
binding result [8]: binds

Molecule: CUCUCUCUCUCUCUCUCUCUCUCUCUCUCUCUCUCUCUCUCU (ssRNA) [(CU)21]
binding result [9]: binds

Molecule: GAATCTTAACGC (ssDNA) [D12]
binding result ([6]; label: 5' 32P): no binding

Molecule: GTGCATTGTAGTTGCATTGCATGTTCTGGTCA (ssDNA) [D32]
binding result [10]: binds

B4: dsDNA_over (dsDNA)
DNA 1: GTGCATTGTAGTTGCATTGCATGTTCTGGTCA
DNA 2: ACCAGAACATGCAATGCAACTACAATGCACAT
binding result [6, 13]: no binding

B5: dsDNA_blunt (dsDNA)
DNA 1: GTGCATTGTAGTTGCATTGCATGTTCTGGTCA
DNA 2: TGACCAGAACATGCAATGCAACTACAATGCAC
binding result [6, 12]: no binding

B6: D56 (ssDNA)
DNA: GGGAGAATCATAAGTAGCGCAGTGAGTCGTTGTGCTGCCCATGTTAACAGTTAGCC
Kd [4]: ~7.4 µM | Kd [5]: ~21 µM

B7: R56 (ssRNA)
RNA: GGGAGAAUCAUAAGUAGCGCAGUGAGUCGUUGUGCUGCCCAUGUUAACAGUUAGCC
Kd [5]: ~23 µM

Molecule: GGGAGAAUCAUAAGUAGCCUCCCCCCAUGUUAACAGUUAGCC (ssRNA) [R42]
binding result [11]: binds

B8: pre-mir-16-1 (structured_RNA)
RNA: UAGCAGCACGUAAAUAUUGGCGUUAAGAUUCUAAAAUUAUCUCCAGUAUUAACUGUGCUGCUGAA
binding result ([8]; 9-nt apical loop): binds
